Publication PMC7921410, “Structure of mammalian Mediator complex reveals Tail module architecture and interaction with a conserved core” (Nature Communications, 2021)

T1: MED29 (mouse (Mus musculus; endogenous in CH12), UniProt Q9DB91 1-199)
T1 construct: MED29, Mus musculus, endogenous upper Tail subunit of Mediator; source: endogenous, CH12 mouse B lymphoma nuclear extract; immunopurified as part of Mediator (FLAG M2 agarose, FLAG peptide elution)
T1 sequence (looked up): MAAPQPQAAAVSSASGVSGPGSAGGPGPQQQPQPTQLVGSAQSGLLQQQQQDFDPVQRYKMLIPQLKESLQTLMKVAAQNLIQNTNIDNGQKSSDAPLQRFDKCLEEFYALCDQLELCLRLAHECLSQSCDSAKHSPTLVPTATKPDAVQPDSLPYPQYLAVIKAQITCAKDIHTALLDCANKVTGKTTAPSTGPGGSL

T2: MED22 (mouse (Mus musculus; endogenous in CH12), UniProt Q62276 1-200)
T2 construct: MED22, Mus musculus, endogenous Head module subunit of Mediator; source: endogenous, CH12 mouse B lymphoma nuclear extract; immunopurified as part of Mediator (FLAG M2 agarose, FLAG peptide elution)
T2 sequence (looked up): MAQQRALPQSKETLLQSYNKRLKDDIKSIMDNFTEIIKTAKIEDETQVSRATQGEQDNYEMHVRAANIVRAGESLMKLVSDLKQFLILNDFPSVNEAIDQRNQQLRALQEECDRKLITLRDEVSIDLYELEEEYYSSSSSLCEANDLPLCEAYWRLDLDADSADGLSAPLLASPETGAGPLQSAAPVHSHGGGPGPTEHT

T3: MED17 (mouse (Mus musculus; endogenous in CH12), UniProt Q8VCD5 1-649)
T3 construct: MED17, Mus musculus, endogenous Head module scaffold subunit of Mediator; source: endogenous, CH12 mouse B lymphoma nuclear extract; immunopurified as part of Mediator (FLAG M2 agarose, FLAG peptide elution)
T3 sequence (looked up): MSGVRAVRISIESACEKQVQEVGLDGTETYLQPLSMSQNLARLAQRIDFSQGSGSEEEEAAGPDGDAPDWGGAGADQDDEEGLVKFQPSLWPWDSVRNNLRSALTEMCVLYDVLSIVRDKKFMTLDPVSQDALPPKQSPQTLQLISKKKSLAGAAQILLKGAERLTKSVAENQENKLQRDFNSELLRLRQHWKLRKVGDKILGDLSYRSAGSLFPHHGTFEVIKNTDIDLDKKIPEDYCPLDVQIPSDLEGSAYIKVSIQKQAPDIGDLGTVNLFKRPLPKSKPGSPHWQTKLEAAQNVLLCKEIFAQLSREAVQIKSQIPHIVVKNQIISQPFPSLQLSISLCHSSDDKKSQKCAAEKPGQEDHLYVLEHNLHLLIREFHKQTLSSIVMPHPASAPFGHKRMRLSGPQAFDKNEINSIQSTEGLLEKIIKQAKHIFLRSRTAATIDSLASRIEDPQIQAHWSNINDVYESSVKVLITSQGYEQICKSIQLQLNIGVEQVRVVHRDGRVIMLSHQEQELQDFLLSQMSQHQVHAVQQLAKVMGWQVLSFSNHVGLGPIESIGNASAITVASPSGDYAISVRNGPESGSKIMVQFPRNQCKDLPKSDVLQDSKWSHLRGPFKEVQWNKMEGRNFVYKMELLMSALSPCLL

T4: MED27 (mouse (Mus musculus; endogenous in CH12), UniProt Q9DB40 1-311)
T4 construct: MED27, Mus musculus, endogenous upper Tail subunit of Mediator; source: endogenous, CH12 mouse B lymphoma nuclear extract; immunopurified as part of Mediator (FLAG M2 agarose, FLAG peptide elution)
T4 sequence (looked up): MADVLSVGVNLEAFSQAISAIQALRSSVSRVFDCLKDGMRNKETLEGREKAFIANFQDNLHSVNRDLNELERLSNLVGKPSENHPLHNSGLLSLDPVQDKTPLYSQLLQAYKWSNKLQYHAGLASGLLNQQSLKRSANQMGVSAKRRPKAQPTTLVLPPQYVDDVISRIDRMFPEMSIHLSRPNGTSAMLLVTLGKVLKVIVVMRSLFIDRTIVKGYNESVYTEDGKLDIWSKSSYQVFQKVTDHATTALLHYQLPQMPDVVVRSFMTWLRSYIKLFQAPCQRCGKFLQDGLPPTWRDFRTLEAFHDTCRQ

T5: MED20 (mouse (Mus musculus; endogenous in CH12), UniProt Q9R0X0 1-212)
T5 construct: MED20, Mus musculus, endogenous Head module subunit of Mediator; source: endogenous, CH12 mouse B lymphoma nuclear extract; immunopurified as part of Mediator (FLAG M2 agarose, FLAG peptide elution)
T5 sequence (looked up): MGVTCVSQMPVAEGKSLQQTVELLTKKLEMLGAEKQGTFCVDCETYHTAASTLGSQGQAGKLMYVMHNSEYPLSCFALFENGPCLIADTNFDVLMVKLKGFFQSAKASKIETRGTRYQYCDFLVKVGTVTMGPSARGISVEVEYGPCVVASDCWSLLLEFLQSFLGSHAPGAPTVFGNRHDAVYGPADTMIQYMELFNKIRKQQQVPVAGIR

T6: MED7 (mouse (Mus musculus; endogenous in CH12), UniProt Q9CZB6 1-233)
T6 construct: MED7, Mus musculus, endogenous Middle module subunit of Mediator; source: endogenous, CH12 mouse B lymphoma nuclear extract; immunopurified as part of Mediator (FLAG M2 agarose, FLAG peptide elution)
T6 sequence (looked up): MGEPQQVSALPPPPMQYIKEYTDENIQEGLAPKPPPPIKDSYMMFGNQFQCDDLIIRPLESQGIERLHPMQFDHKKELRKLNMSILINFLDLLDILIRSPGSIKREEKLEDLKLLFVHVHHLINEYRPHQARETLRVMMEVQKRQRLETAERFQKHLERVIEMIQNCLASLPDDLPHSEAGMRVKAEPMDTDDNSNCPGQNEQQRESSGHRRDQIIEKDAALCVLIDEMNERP

B1: MED28 (natural protein, mouse (Mus musculus; endogenous in CH12), UniProt Q920D3 1-178, looked up)
chain: MAASLGGMFTGQPPGPPPPPPGLPGQASLLQAAPGAPRPSNSTLVDELESSFEACFASLVSQDYVNGTDQEEIRTGVDQCIQKFLDIARQTECFFLQKRLQLSVQKPDQVIKEDVSELRSELQRKDALVQKHLTKLRHWQQVLEDINVQHKKPADMPQGSLAFLEQASANIPAPLKQT
notes: MED28, Mus musculus, endogenous upper Tail subunit of Mediator; source: endogenous, CH12 mouse B lymphoma nuclear extract; immunopurified as part of Mediator (FLAG M2 agarose, FLAG peptide elution)
B2: MED11 (natural protein, mouse (Mus musculus; endogenous in CH12), UniProt Q9D8C6 1-117, looked up)
chain: MATYSLANERLRALEDIEREIGAILQNAGTAILELSKEKTNERLLDRQAAAFTTSVQHVEAELSAQIRYLTQVATGQPHEGSSYSSRKDCQMALKRVDYARLKISDVARTCEQMLEN
notes: MED11, Mus musculus, endogenous Head module subunit of Mediator; source: endogenous, CH12 mouse B lymphoma nuclear extract; immunopurified as part of Mediator (FLAG M2 agarose, FLAG peptide elution)
B3: MED18 (natural protein, mouse (Mus musculus; endogenous in CH12), UniProt Q9CZ82 1-208, looked up)
chain: MEAPPVTMMPVTGGTINMMEYLLQGSVLDHSLESLIHRLRGLCDNMEPETFLDHEMVFLLKGQQASPFVLRARRSMDRAGAPWHLRYLGQPEMGDKNRHALVRNCVDIATSENLTDFLMEMGFRMDHEFVAKGHLFRKGIMKVVVYKIFRILVPGNTDSTEALSLSYLVELSVVAPAGQDMVSDDMRNFAEQLKPLVHLEKIDPKRLM
notes: MED18, Mus musculus, endogenous Head module subunit of Mediator; source: endogenous, CH12 mouse B lymphoma nuclear extract; immunopurified as part of Mediator (FLAG M2 agarose, FLAG peptide elution)
B4: MED30 (natural protein, mouse (Mus musculus; endogenous in CH12), UniProt Q9CQI9 1-178, looked up)
chain: MSTPPLAPTGMASGPFGGPQAQQAAREVNTATLCRIGQETVQDIVYRTMEIFQLLRNMQLPNGVTYHTGTYQDRLTKLQDHLRQLSILFRKLRLVYDKCNENCGGMDPIPVEQLIPYVDEDGSKNDDRAGPPRFASEERREIVEVNKKLKQKNQQLKQIMDQLRNLIWDINAMLAMRN
notes: MED30, Mus musculus, endogenous upper Tail subunit of Mediator; source: endogenous, CH12 mouse B lymphoma nuclear extract; immunopurified as part of Mediator (FLAG M2 agarose, FLAG peptide elution)
B5: MED21 (natural protein, mouse (Mus musculus; endogenous in CH12), UniProt Q9CQ39 1-144, looked up)
chain: MADRLTQLQDAVNSLADQFCNAIGVLQQCGPPASFSNIQTAINKDQPANPTEEYAQLFAALIARTAKDIDVLIDSLPSEESTAALQAASLYKLEEENHEAATCLEDVVYRGDMLLEKIQSALADIAQSQLKTRSVTHSHSLPDS
notes: MED21, Mus musculus, endogenous Middle module subunit of Mediator; source: endogenous, CH12 mouse B lymphoma nuclear extract; immunopurified as part of Mediator (FLAG M2 agarose, FLAG peptide elution)

Assays:
Assay in all cases: cryo-EM structure; endogenous mouse Mediator immunopurified from CH12 nuclear extract through 3×FLAG-MED19 or 3×FLAG-MED25; eluted in 50 mM HEPES pH 7.9, 100 mM KCl, 5% glycerol, 1 mM EDTA, 0.005% NP-40; map at 4.0 Å overall, focused refinement of the MED1 and knob/hook ends (6-10 Å)
Details in all cases: both partners purified
MED29 = molecular target: T1, MED29
MED30 = molecular target: B4
MED22 = molecular target: T2, MED22
MED17 = molecular target: T3, MED17
MED27 = molecular target: T4, MED27
MED28 = molecular target: B1
MED20 = molecular target: T5, MED20
MED7 = molecular target: T6, MED7

| binding result (MED29) | binding result (MED30) | binding result (MED22) | binding result (MED17) | binding result (MED27) | binding result (MED28) | binding result (MED20) | binding result (MED7) | Binder |
| --- | --- | --- | --- | --- | --- | --- | --- | --- |
| binds | binds | binds | binds | binds |  |  |  | B1 |
|  | binds | binds | binds |  | binds |  |  | B2 |
|  |  |  | binds | binds |  | binds |  | B3 |
| binds |  | binds | binds | binds |  |  |  | B4 |
|  |  |  |  |  |  |  | binds | B5 |
